Assay results taken from PMC8027947, “Nucleoside Metabolism Is Induced in Common Bean During Early Seedling Development” (Frontiers in Plant Science, 2021).

Assays:
[1] = substrate: O=c1[nH]c(=O)c2ncn([C@@H]3O[C@H](CO)[C@@H](O)[C@H]3O)c2[nH]1; experiment: HPLC of nucleoside hydrolysis, Michaelis-Menten; assay type: biochemical, Phaseolus vulgaris; conditions: 50 mM Tris-HCl pH 7.5, 1 mM DTT, 40 °C, apparent Km
Source text: (§1) HPLC of nucleoside hydrolysis, Michaelis-Menten on PvNSH2

[2] = substrate: OC[C@H]1O[C@@H](n2cnc3c(O)ncnc32)[C@H](O)[C@@H]1O; experiment: HPLC of nucleoside hydrolysis, Michaelis-Menten; assay type: biochemical, Phaseolus vulgaris; conditions: 50 mM Tris-HCl pH 7.5, 1 mM DTT, 40 °C, apparent Km
Source text: as §1

B1: PvNSH2 (Phaseolus vulgaris) (protein)
chain: MAADTEPKKIIIDTDPGIDDAMAIFVALQSPEIEVIGLTTIYGNVYTTLATRNALHLLEVAGRTDIPVAEGTHLTLTKGTKLRIADFVHGADGLGNQNFPPPKGKPIEESAASFLVRQAKLNPGKVTVVALGPLTNIALAIELDPEFVKNIGQIVILGGAFAVNGNVNPAAEANIFGDPDAADVVFTSGADILALGINVTHQVILTSSDREILASSNGKFAQYLHKILDVYFSYHQESYNTKGVYLHDPTVVLAAVDPSLVTCIEGIVRVQTSGITRGLTLLYNKQKRFGEIHEWSNKPTVKVAVTVDAPRVMKLVMDRLLDS
notes: no N. benthamiana NSH1 detected by MS; locus assigned by print order
Km [1]: 120 ± 20 µM
kcat [1]: 13.2 ± 0.26 s⁻¹
kcat/Km [1]: 116000 ± 15200 M⁻¹ s⁻¹
Km [2]: 210 ± 20 µM
kcat [2]: 2.91 ± 0.14 s⁻¹
kcat/Km [2]: 13700 ± 640 M⁻¹ s⁻¹
